Laboratory results: patent publication US20240368668A1, “SUBSTRATES AND BIOMARKERS OF ADAMTS7” (The Broad Institute, Inc., priority 2021, published 2024)
Square brackets hold non-standard residues; d marks the D form. Ends that are not written are not given here. Met(O) = CS(=O)CC[C@H](N)C(=O)O

Target: T1, mouse ADAMTS7 (Mus musculus, UniProt Q68SA9, E373Q)
T1 construct: Full-length mouse Adamts7 1-1857 (Uniprot Q68SA9, WT or E373Q catalytic mutant); expressed in transfected cells; host or cells: Human Coronary Artery Smooth Muscle Cells (HCA-SMC, Lonza), adenovirus 50 MOI
T1 sequence (Q68SA9 221-1657 E373Q): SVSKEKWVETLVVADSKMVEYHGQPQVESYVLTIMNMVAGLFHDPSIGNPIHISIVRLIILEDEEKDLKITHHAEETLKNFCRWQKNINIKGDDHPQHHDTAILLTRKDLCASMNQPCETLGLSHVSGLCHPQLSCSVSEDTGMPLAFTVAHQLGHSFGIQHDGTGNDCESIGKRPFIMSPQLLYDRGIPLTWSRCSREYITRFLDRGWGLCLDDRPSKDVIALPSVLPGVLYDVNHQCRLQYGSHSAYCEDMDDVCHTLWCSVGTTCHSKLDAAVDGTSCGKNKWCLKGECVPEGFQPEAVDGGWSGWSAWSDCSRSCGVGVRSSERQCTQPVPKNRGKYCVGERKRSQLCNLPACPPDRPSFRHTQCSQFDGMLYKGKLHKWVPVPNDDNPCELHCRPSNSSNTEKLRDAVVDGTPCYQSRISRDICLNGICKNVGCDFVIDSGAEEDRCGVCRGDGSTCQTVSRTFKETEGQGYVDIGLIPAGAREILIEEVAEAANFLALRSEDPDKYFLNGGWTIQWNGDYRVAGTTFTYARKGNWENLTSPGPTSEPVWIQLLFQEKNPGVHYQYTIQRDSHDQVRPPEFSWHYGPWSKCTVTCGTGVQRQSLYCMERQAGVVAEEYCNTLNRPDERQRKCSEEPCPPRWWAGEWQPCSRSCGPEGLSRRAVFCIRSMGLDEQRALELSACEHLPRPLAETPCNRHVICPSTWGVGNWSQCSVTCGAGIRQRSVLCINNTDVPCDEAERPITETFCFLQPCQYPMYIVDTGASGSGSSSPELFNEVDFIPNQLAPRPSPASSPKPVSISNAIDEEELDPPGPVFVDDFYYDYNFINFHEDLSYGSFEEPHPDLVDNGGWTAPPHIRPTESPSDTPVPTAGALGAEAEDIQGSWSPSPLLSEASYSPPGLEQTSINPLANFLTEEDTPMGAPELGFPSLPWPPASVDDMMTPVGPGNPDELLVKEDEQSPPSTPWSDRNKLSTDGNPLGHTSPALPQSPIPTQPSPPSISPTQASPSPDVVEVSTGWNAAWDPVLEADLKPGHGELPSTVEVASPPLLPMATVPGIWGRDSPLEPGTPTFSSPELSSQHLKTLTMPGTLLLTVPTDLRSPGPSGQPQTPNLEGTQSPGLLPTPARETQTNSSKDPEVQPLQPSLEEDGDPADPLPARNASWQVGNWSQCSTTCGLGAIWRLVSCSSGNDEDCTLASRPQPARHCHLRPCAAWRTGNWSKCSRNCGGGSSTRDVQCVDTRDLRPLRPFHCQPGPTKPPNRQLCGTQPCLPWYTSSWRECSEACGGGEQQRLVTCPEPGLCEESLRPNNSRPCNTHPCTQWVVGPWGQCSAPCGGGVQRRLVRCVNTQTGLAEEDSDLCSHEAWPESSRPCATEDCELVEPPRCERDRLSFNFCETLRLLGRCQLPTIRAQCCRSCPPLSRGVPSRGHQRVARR
Assay: TMT10 TAILS N-terminomics, HUVEC experiment (process replicates, trypsin/AspN digest)
Format: cell-based, human
Settings: HUVEC TAILS HC; log fold change of N-terminal peptide, Ad-mADAMTS7 EQ over Luc
How it was run: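 Full-length mouse ADAMTS7 (WT or E373Q mutant, C-terminal 3xFLAG) or luciferase was transduced via adenovirus, 50 MOI, into HCA-SMC (SMC1, SMC2) or HUVEC. SMC1: pooled media, technical triplicates 400 ug; SMC2: process triplicates 300 ug; HUVEC: process triplicates 200 ug, bFGF2 10 ng/ml.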

| Substance | logFC.mEQ.over.Luc |
| --- | --- |
| ASMT_321 (LSSAGFR; listed as Homo sapiens) | −0.39 |
| BICD1_280 (NNDDKMNGHIHGPLVKLNGDYR; listed as Homo sapiens) | −0.08 |
| CLU_267 (FQHPPTEFIR; listed as Homo sapiens) | −0.08 |
| CTGF_173 (TVVGPALAAYR; listed as Homo sapiens) | −0.45 |
| CTGF_174 (VVGPALAAYR; listed as Homo sapiens) | −0.31 |
| FN1_1624 (LVQTAVTTIPAPT; listed as Homo sapiens) | −0.16 |
| FN1_1743 (WESPQGQVSR; listed as Homo sapiens) | −0.19 |
| LTBP2_129 (QQQPAPR; listed as Homo sapiens) | −0.49 |
| LTBP2_253 (GEGTLAR; listed as Homo sapiens) | −0.09 |
| LTBP3_164 (LSTGALPPLAPEG; listed as Homo sapiens) | −0.39 |
| LTBP3_205 (HAAFLVPLGPGQISA; listed as Homo sapiens) | −0.13 |
| LTBP3_221 (VQAPPPVVNVR; listed as Homo sapiens) | −0.39 |
| MCFD2_55 (HLEGVINKPEA; listed as Homo sapiens) | 0.14 |
| PSAP_301 (LVEPIKKH; listed as Homo sapiens) | −0.06 |
| PTBP1_376 (AAAAAGR; listed as Homo sapiens) | 0.06 |
| PZP_578 (HAHLQVAAAPQSLCALR; listed as Homo sapiens) | −0.34 |
| THBS1_630 (FGQGVEHATANK; listed as Homo sapiens) | −0.01 |
| UQCRH_76 (HGSPNNSERAMRAVGE[Met(O)]CKGPGAAR; listed as Homo sapiens) | 0.01 |
| ZYX_244 (PVSLANTQPR; listed as Homo sapiens) | 0.18 |
